Reference: patent US20170349905A1

Experiments:
[1] = biological target: second domain of Cas9 protein (half domain comprising the C-terminus, beginning with the QG amino acids of the SGQG linker; NLS and HA tag at its C-terminus) (UniProt Q99ZW2); experiment: cell-based or functional assay
[2] = biological target: second domain of Cas9 protein delivered by adeno-associated virus vector (splicing acceptor linked t (UniProt Q99ZW2)); experiment: cell-based or functional assay
second domain of Cas9 protein delivered by adeno-associated virus vector (splicing acceptor linked t, sequence (Q99ZW2 716-1368 limits assumed): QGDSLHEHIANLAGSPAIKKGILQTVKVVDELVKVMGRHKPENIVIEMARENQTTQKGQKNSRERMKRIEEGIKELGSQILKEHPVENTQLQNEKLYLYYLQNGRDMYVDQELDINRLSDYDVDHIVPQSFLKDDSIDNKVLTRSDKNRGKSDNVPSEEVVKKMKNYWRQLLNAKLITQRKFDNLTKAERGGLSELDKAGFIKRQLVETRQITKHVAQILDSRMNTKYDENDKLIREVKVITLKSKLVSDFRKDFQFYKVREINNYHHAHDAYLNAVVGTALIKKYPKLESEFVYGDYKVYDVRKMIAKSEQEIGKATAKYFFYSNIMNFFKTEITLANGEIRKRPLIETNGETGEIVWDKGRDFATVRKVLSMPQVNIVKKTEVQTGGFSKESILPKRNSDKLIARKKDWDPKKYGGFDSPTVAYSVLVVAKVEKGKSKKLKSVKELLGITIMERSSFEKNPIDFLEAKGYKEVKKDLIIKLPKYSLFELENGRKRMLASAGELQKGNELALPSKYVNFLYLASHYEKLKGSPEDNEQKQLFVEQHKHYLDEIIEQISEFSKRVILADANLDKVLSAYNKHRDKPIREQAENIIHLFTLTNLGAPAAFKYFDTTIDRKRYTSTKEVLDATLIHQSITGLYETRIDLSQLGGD

second domain of Cas9 protein (half domain comprising the C-terminus, beginning with the QG amino acids of the SGQG linker; NLS and HA tag at its C-terminus), sequence (Q99ZW2 716-1368): as the sequence (Q99ZW2 716-1368 limits assumed) above

In the case of “first domain of Cas9 protein (half domain comprising the N-terminus, ending in the SG amino acids of the SGQG linker; HA tag and NLS at its N-terminus) (from UniProt Q99ZW2 1-715) (enzyme)”, the Indel frequency in the CCR5 gene (next-generation sequencing) [1] is reported as 20.3%, the Indel frequency in the DMD gene (next-generation sequencing) [1] is reported as 23.8% and the Indel frequency in the HPRT gene (next-generation sequencing) [1] is reported as 27.1%.
In the case of “first domain of Cas9 protein delivered by adeno-associated virus vector (splicing donor linked to the C-terminal region) (from UniProt Q99ZW2 1-715) (enzyme)”, the target sequence cleavage rate (DMD exon 51) in Hela cells co-infected with AAV, next-generation sequencing [2] is reported as 5%.
